Data taken from US20120220492A1.

How the values were obtained:
antibody against CD29 = experiment: cell-based or functional assay
antibody against c-kit = experiment: cell-based or functional assay

Substance	infectious titers on Jurkat cells (GFP positive cells by FACS) (antibody against CD29; scale: times higher than virus with a wildtype capsid)	transduction efficiency on MO7E cells (antibody against c-kit) [fold]	transduction efficiency on MO7E cells (fold higher than wildtype) (antibody against c-kit)	transgene expression (antibody against c-kit; scale: fold higher than virus with wildtype capsid)	transgene expression (antibody against c-kit; scale: times higher than virus with wildtype capsid)	infectivity on Jurkat cells (fold lower than the 25% virus) (antibody against CD29)	infectivity on MO7E cells (fold lower than the 25% virus) (antibody against c-kit)
AAV mosaic composed of 25% mutant capsid proteins with a Protein A fragment (Z34C) insertion at position 587 (from UniProt P03135 1-735; P03135 139-735; P03135 203-735; P03135 139-735; P03135 203-735)	2 to 3	10	100	100	100000		
AAV mosaic composed of 50% mutant capsid proteins with a Protein A fragment (Z34C) insertion at position 587 (from UniProt P03135 1-735; P03135 139-735; P03135 203-735; P03135 139-735; P03135 203-735)						2	3
